The results in this text go back to paper doi:10.1101/2024.12.09.627598.

In this assay the target is TLR5^N14, a truncated human TLR5 construct containing only the D1-domain binding sites (human) (UniProt O60602). As to the kind of experiment: SPR.
Sequence of UniProt O60602 (O60602 21-639): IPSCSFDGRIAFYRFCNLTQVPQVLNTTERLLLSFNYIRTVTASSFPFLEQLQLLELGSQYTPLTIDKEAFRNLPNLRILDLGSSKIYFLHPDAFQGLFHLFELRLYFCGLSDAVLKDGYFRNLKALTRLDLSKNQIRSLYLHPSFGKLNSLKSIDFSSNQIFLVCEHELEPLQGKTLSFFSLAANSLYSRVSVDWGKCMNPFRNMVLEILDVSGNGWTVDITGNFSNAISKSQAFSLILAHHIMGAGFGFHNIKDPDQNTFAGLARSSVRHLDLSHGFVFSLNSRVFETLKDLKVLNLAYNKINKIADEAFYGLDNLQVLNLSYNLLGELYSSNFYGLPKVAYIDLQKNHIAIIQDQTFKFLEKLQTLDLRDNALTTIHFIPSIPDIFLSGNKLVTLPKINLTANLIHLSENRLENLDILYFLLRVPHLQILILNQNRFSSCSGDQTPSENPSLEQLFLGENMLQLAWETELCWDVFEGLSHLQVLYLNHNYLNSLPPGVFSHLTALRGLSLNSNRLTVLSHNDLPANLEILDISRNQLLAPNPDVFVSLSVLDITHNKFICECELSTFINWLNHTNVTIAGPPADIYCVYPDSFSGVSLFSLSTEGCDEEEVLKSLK
The substance “RhFlaB, flagellin FlaB of Roseburia hominis, wild type (recombinant) (from UniProt G2T5W2 1-506) (natural protein)” came in with a Kd of 11.4 nM, a koff of 0.000555 s⁻¹ and a kon of 45200 M⁻¹ s⁻¹.

“RhFlaB-PIM, primary interface mutant of RhFlaB (Q88A, R89A, Q96A) (from UniProt G2T5W2 1-506) (natural protein)” returned a Kd of 78 nM, a koff of 0.000691 s⁻¹ and a kon of 9090 M⁻¹ s⁻¹.

The substance “RhFlaB-ΔD0, RhFlaB truncated to remove the D0 domain (domain or fragment)” yielded a kon of 75500 M⁻¹ s⁻¹.

The substance “StFliC, flagellin FliC of Salmonella enterica serovar Typhimurium, wild type (from UniProt P06179 1-495) (natural protein)” yielded a Kd of 16.3 nM, a koff of 0.000192 s⁻¹ and a kon of 11300 M⁻¹ s⁻¹.

On to “StFliC-PIM, primary interface mutant of StFliC (Q89A, R90A, Q97A) (natural protein)”, for which the Kd amounted to 585 nM, the koff is 0.011 s⁻¹ and the kon worked out at 18800 M⁻¹ s⁻¹.
